The text below walks through data of the supplement of paper PMC7877785.

± gives the uncertainty stated by the source.

This data set can be described thus: self-splicing fitness, log relative to wild type (ln ratio); higher = more splicing; Tetrahymena group I intron in knt gene, E. coli kanamycin selection, DiMSum; sequences stand for … in CUCUCU…GGAGGGAAAAGUUAUCAGGCAUGCACCUGGUAGCUAGUCUUUAAACCAAUAGAUUGCAUCGGUUUAAAAGGCAAGACCGUCAAAUUGCGGGAAAGGGGUCAACAGCCGUUCAGUACCAAGUCUCAGGGGAAACUUUGAGAUGGCCUUGCAAAGGGUAUGGUAAUAAGCUGACGGACAUGGUCCUAACCACGCAGCCAAGUCCUAAGUCAACAGAUCUUCUGUUGAUAUGGAUGCAGUUCACAGACUAAAUGUCGGUCGGGGAAGAUGUAUUCUUCUCAUAAGAUAUAGUCGGACCUCUCCUUAAUGGGAGCUAGCGGAUGAAGUGAUGCAACACUGGAGCCGCUGGGAACUAAUUUGUAUGCGAAAGUAUAUUGAUUAGUUUUGGAGUACUCGUGGUCG
The essentials: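 A randomised library covering all eight P1ex-region intron nucleotides was built with the intron in the knt kanamycin-resistance gene on pET-22b(+) and held in E. coli BL21(DE3). Cells were grown overnight at 37°C or 30°C on LB agar, with or without 25 μg/mL kanamycin, plus 100 μg/mL carbenicillin, 50 μM IPTG and 0.2% rhamnose, and pooled colonies were amplicon-sequenced on an Illumina HiSeq 2500. DiMSum fitness is the error-weighted combination of wild-type-normalised replicate fold changes, kanamycin versus none.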

Consider GGUCAGCAAUAUUACGGUGC, for which the “self-splicing fitness (ln)” value (30 °C) was -0.28 ± 0.075 and the “self-splicing fitness (ln)” value (37 °C) turned out to be 0.535 ± 0.11.
In the same order, the values of GGUCAGCAAUAUUACGUACU are -1.84 ± 0.12 and -0.914 ± 0.13.
Regarding GGUCAGCAAUAUUACGUAGC, the “self-splicing fitness (ln)” value is -0.572 ± 0.067 (30 °C) and -0.268 ± 0.081 (37 °C).
Take GGUCAGCAAUAUUACGUCUG: the “self-splicing fitness (ln)” value was -0.665 ± 0.094 (30 °C) and -0.321 ± 0.11 (37 °C).
Turning to GGUCAGCAAUAUUACGUGAC, the “self-splicing fitness (ln)” value was -2.08 ± 0.17 (30 °C) and -2 ± 0.24 (37 °C).
In the same order, the values of GGUGAGCAAUAUUACGACAA are -1.2 ± 0.26 and -0.76 ± 0.3.
In the same order, the values of GGUGAGCAAUAUUACGACGG are -2.18 ± 0.29 and -1.74 ± 0.3.
On to GGUGAGCAAUAUUACGAGCC, for which the “self-splicing fitness (ln)” value (37 °C) is -1.52 ± 0.43.
As to GGUGAGCAAUAUUACGAGUC, the “self-splicing fitness (ln)” value is -1.67 ± 0.24 (30 °C) and -1.83 ± 0.37 (37 °C).
In the same order, the values of GGUGAGCAAUAUUACGAUAC are -2.03 ± 0.16 and -0.811 ± 0.15.
In the same order, the values of GGUGAGCAAUAUUACGAUCG are -0.341 ± 0.095 and 0.221 ± 0.13.
For GGUGAGCAAUAUUACGAUGC the same measures were -1.6 ± 0.13 and -0.514 ± 0.19.
For GGUGAGCAAUAUUACGCAGU, the “self-splicing fitness (ln)” value is, setting by setting: (30 °C) -2.13 ± 0.32; (37 °C) -2.45 ± 0.41.
For the sequence GGUGAGCAAUAUUACGCCUG, the “self-splicing fitness (ln)” value (37 °C) is -1.47 ± 0.28.
With GGUGAGCAAUAUUACGCGCU, the “self-splicing fitness (ln)” value (30 °C) was -1.7 ± 0.42.
Regarding GGUGAGCAAUAUUACGCUGA, the “self-splicing fitness (ln)” value (37 °C) is -2.84 ± 0.48.
Turning to GGUGAGCAAUAUUACGCUUA, the “self-splicing fitness (ln)” value (30 °C) is -3.17 ± 0.35 and the “self-splicing fitness (ln)” value (37 °C) is -1.92 ± 0.33.
For GGUGAGCAAUAUUACGGGCG, the “self-splicing fitness (ln)” value reads like this: (30 °C) -1.39 ± 0.14; (37 °C) -0.473 ± 0.14.
GGUGAGCAAUAUUACGUAAU: the “self-splicing fitness (ln)” value reads like this: (30 °C) -1.71 ± 0.27; (37 °C) -0.991 ± 0.31.
Consider GGUGAGCAAUAUUACGUAGU, for which the “self-splicing fitness (ln)” value runs as follows: (30 °C) -3.37 ± 0.23; (37 °C) -2.1 ± 0.29.
GGUGAGCAAUAUUACGUCUG: the “self-splicing fitness (ln)” value is -3.31 ± 0.17 (30 °C) and -2.03 ± 0.14 (37 °C).
For GGUGAGCAAUAUUACGUGAU the same measures were -2.45 ± 0.13 and -1.71 ± 0.18.
Take GGUGAGCAAUAUUACGUGUU: the “self-splicing fitness (ln)” value (37 °C) was -1.87 ± 0.27.
Turning to GGUUAGCAAUAUUACGAAUA, the “self-splicing fitness (ln)” value (30 °C) was -1.94 ± 0.19 and the “self-splicing fitness (ln)” value (37 °C) is -1.85 ± 0.26.
For GGUUAGCAAUAUUACGAGUA the same measures were -4.51 ± 0.46 and -1.58 ± 0.2.
For GGUUAGCAAUAUUACGAUAG the same measures were -1.82 ± 0.28 and -1.14 ± 0.32.
In the same order, the values of GGUUAGCAAUAUUACGCAUG are -1.89 ± 0.17 and -1.57 ± 0.14.
As to GGUUAGCAAUAUUACGCGGU, the “self-splicing fitness (ln)” value is, setting by setting: (30 °C) -2.85 ± 0.49; (37 °C) -2.36 ± 0.35.
With GGUUAGCAAUAUUACGCUAA, the “self-splicing fitness (ln)” value (30 °C) was -1.98 ± 0.41.
As to GGUUAGCAAUAUUACGCUCG, the “self-splicing fitness (ln)” value runs as follows: (30 °C) -0.367 ± 0.2; (37 °C) 0.204 ± 0.28.
For GGUUAGCAAUAUUACGCUGA, the “self-splicing fitness (ln)” value reads like this: (30 °C) -3.14 ± 0.14; (37 °C) -2.24 ± 0.13.
In the same order, the values of GGUUAGCAAUAUUACGGCGU are -0.725 ± 0.1 and 0.137 ± 0.13.
Consider GGUUAGCAAUAUUACGGGAG, for which the “self-splicing fitness (ln)” value reads like this: (30 °C) -3.49 ± 0.24; (37 °C) -2.55 ± 0.25.
In the same order, the values of GGUUAGCAAUAUUACGGGCA are -0.0835 ± 0.083 and -0.182 ± 0.079.
Consider GGUUAGCAAUAUUACGGGGC, for which the “self-splicing fitness (ln)” value (37 °C) is -2.66 ± 0.4.
As for GGUUAGCAAUAUUACGGGUU, the “self-splicing fitness (ln)” value is -1.99 ± 0.1 (30 °C) and -1.48 ± 0.12 (37 °C).
For the sequence GGUUAGCAAUAUUACGGUGC, the “self-splicing fitness (ln)” value runs as follows: (30 °C) -1.07 ± 0.088; (37 °C) -0.186 ± 0.12.
GGUUAGCAAUAUUACGGUGG: under “37 °C”, the “self-splicing fitness (ln)” value is -1.57 ± 0.31.
For GGUUAGCAAUAUUACGUACA, the “self-splicing fitness (ln)” value was -0.759 ± 0.11 (30 °C) and -0.469 ± 0.11 (37 °C).
For GGUUAGCAAUAUUACGUGAA, the “self-splicing fitness (ln)” value is -0.107 ± 0.13 (30 °C) and -0.9 ± 0.14 (37 °C).
For GGUUAGCAAUAUUACGUGGG the same measures were -2.93 ± 0.2 and -2.54 ± 0.18.
In the same order, the values of GGUUAGCAAUAUUACGUGUC are -1.03 ± 0.097 and -0.323 ± 0.12.
On to GGUUAGCAAUAUUACGUUAG, for which the “self-splicing fitness (ln)” value by setting is: (30 °C) -2.34 ± 0.13; (37 °C) -1.69 ± 0.19.
In the case of GUAAAGCAAUAUUACGAAUU, the “self-splicing fitness (ln)” value runs as follows: (30 °C) -2.11 ± 0.16; (37 °C) -0.966 ± 0.18.
As for GUAAAGCAAUAUUACGACAU, the “self-splicing fitness (ln)” value was 0.272 ± 0.012 (30 °C) and 0.348 ± 0.032 (37 °C).
For GUAAAGCAAUAUUACGACGU the same measures were 0.341 ± 0.11 and 0.169 ± 0.12.
In the same order, the values of GUAAAGCAAUAUUACGAGCG are -0.0732 ± 0.09 and 0.212 ± 0.12.
In the same order, the values of GUAAAGCAAUAUUACGAUCG are -0.724 ± 0.075 and 0.373 ± 0.11.
For the sequence GUAAAGCAAUAUUACGAUGG, the “self-splicing fitness (ln)” value by setting is: (30 °C) -1.81 ± 0.081; (37 °C) -0.952 ± 0.1.
As to GUAAAGCAAUAUUACGCAGG, the “self-splicing fitness (ln)” value was -1.96 ± 0.12 (30 °C) and -0.168 ± 0.14 (37 °C).
Regarding GUAAAGCAAUAUUACGCCAA, the “self-splicing fitness (ln)” value was -0.7 ± 0.17 (30 °C) and -0.982 ± 0.26 (37 °C).
For GUAAAGCAAUAUUACGCCAU the same measures were -1.89 ± 0.1 and -0.44 ± 0.12.
In the same order, the values of GUAAAGCAAUAUUACGCGGA are -1.51 ± 0.086 and -1.3 ± 0.11.
As to GUAAAGCAAUAUUACGCUGU, the “self-splicing fitness (ln)” value by setting is: (30 °C) -0.603 ± 0.083; (37 °C) -1.16 ± 0.12.
With GUAAAGCAAUAUUACGCUUA, the “self-splicing fitness (ln)” value was -1.27 ± 0.11 (30 °C) and -0.77 ± 0.14 (37 °C).
In the same order, the values of GUAAAGCAAUAUUACGGCCA are -0.497 ± 0.11 and 0.704 ± 0.17.
GUAAAGCAAUAUUACGGCUC: the “self-splicing fitness (ln)” value (30 °C) is -0.0413 ± 0.071 and the “self-splicing fitness (ln)” value (37 °C) was 0.298 ± 0.1.
On to GUAAAGCAAUAUUACGGUCG, for which the “self-splicing fitness (ln)” value was -0.377 ± 0.056 (30 °C) and -0.0786 ± 0.088 (37 °C).
In the same order, the values of GUAAAGCAAUAUUACGUAGA are -2.33 ± 0.1 and -1.32 ± 0.12.
For GUAAAGCAAUAUUACGUUAU, the “self-splicing fitness (ln)” value reads like this: (30 °C) -2.57 ± 0.14; (37 °C) -1.23 ± 0.17.
With GUAAAGCAAUAUUACGUUCA, the “self-splicing fitness (ln)” value by setting is: (30 °C) -0.419 ± 0.072; (37 °C) 0.177 ± 0.12.
On to GUAAAGCAAUAUUACGUUCG, for which the “self-splicing fitness (ln)” value is, setting by setting: (30 °C) -0.724 ± 0.061; (37 °C) -0.407 ± 0.084.
Turning to GUAAAGCAAUAUUACGUUUG, the “self-splicing fitness (ln)” value (30 °C) was -2.28 ± 0.081 and the “self-splicing fitness (ln)” value (37 °C) is -1.34 ± 0.094.
With GUACAGCAAUAUUACGACCA, the “self-splicing fitness (ln)” value is, setting by setting: (30 °C) -1.85 ± 0.25; (37 °C) -0.829 ± 0.33.
With GUACAGCAAUAUUACGACCC, the “self-splicing fitness (ln)” value (30 °C) is -0.186 ± 0.36 and the “self-splicing fitness (ln)” value (37 °C) stood at 0.979 ± 0.36.
In the same order, the values of GUACAGCAAUAUUACGAGGA are -3.11 ± 0.29 and -1.88 ± 0.23.
With GUACAGCAAUAUUACGAGUA, the “self-splicing fitness (ln)” value (37 °C) was -2.65 ± 0.31.
For the sequence GUACAGCAAUAUUACGCACC, the “self-splicing fitness (ln)” value was -2.67 ± 0.26 (30 °C) and -2.35 ± 0.38 (37 °C).
In the same order, the values of GUACAGCAAUAUUACGCCUA are -1.06 ± 0.099 and -0.254 ± 0.09.
For GUACAGCAAUAUUACGCUAA the same measures were -2.37 ± 0.14 and -0.948 ± 0.11.
Consider GUACAGCAAUAUUACGGACG, for which the “self-splicing fitness (ln)” value was -3.05 ± 0.14 (30 °C) and -0.547 ± 0.12 (37 °C).
Consider GUACAGCAAUAUUACGGACU, for which the “self-splicing fitness (ln)” value is -1.74 ± 0.062 (30 °C) and -0.781 ± 0.081 (37 °C).
As to GUACAGCAAUAUUACGGCGA, the “self-splicing fitness (ln)” value reads like this: (30 °C) -1.14 ± 0.18; (37 °C) -1.09 ± 0.14.
For GUACAGCAAUAUUACGGGAU the same measures were -3.85 ± 0.15 and -2.59 ± 0.13.
On to GUACAGCAAUAUUACGGGCU, for which the “self-splicing fitness (ln)” value (30 °C) is -3.98 ± 0.3 and the “self-splicing fitness (ln)” value (37 °C) was -2.1 ± 0.21.
For GUACAGCAAUAUUACGUAAC the same measures were -2.18 ± 0.14 and -1.11 ± 0.12.
In the same order, the values of GUACAGCAAUAUUACGUAUA are -1.77 ± 0.11 and -1 ± 0.12.
For GUACAGCAAUAUUACGUCGC, the “self-splicing fitness (ln)” value reads like this: (30 °C) -2.57 ± 0.15; (37 °C) -0.812 ± 0.16.
